Consider one sequence from PMC5720770.

The data set concerns the target T1, OxyR (Pseudomonas aeruginosa (PAO1?)) (UniProt Q9HTL4).
T1 sequence: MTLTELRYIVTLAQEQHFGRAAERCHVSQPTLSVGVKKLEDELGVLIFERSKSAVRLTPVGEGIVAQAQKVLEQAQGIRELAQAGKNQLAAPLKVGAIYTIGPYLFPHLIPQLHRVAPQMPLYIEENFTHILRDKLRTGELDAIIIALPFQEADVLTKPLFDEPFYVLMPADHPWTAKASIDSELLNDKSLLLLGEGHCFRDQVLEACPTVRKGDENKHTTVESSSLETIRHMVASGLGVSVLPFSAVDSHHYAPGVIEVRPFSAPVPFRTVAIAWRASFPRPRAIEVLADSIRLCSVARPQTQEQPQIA
The data set is described as follows: DNase I footprinting. The settings on record: Footprint: 20 mM Tris-HCl pH 7.0, 50 mM KCl, 1 mM EDTA, 5% glycerol, 50 ug/ml BSA, 5 ug/ml calf thymus DNA, 0.5 ug/ml poly(dI-dC), 25 C, 15 min; EMSA: Roche …. (In EMSA bound probe runs differently from free probe, usually more slowly.)

With “CAGGCGCTCGGCGGCGCGGGTGAAACTGCCTTCGCGGGCGACGGCGTCGAAGGCGCGGAGCTGGAAGAGATTCATGGTATCGGCCTGGCTTATGGCTGGCATCGGAACAAACAATTTGAACGATAGTAGCGCGGCGCTCACCTTATGTCTCCAGGCTTCCCTGGAACGCCGGCGCGGAACGACCGCCCGGACCGCGAAG (double strand) [phnW promoter 199-bp fragment (footprint)]”, the binding entry is “binds”.
